In assay [1] the target is HLA-A*0301 (purified HLA class I molecule) (human). The assay can be described thus: competition with 125I-labelled probe peptide on purified HLA-A*0301, gel filtration. Background: In gel filtration, larger molecules generally elute earlier.
Assay [2] addresses HLA-B*0702 (human). Nature of the assay: competition vs 125I-labelled probe peptide, purified HLA, gel filtration.
Assay [3] addresses HLA-B*3501 (human). The description is as above.
Assay [4] addresses HLA-B*5101 (human). The assay is described as above.
In assay [5] the target is HLA-B*5301 (human). The assay is described as above.
For assay [6], the target named is HLA-B*5401 (human). The description is as above.
For assay [7], the target named is T1, HLA-A*0301 (purified HLA class I molecule) (human).
T1 construct: also called HLA-A3
Nature of the assay: competition with 125I-labelled probe peptide for purified HLA-A*0301, gel filtration.

For assay [8], the target named is HLA-B*0702 (human). The assay can be described thus: competition with 125I probe peptide, purified HLA.
Assay [9] has as its target HLA-B*3501 (human). Nature of the assay: competition with 125I probe peptide, purified HLA.
Assay [10] deals with HLA-B*5101 (human). Nature of the assay: competition with 125I probe peptide, purified HLA.
Assay [11] has as its target HLA-B*5301 (human). The assay can be described thus: competition with 125I probe peptide, purified HLA.
Assay [12] deals with HLA-B*5401 (human). The assay can be described thus: competition with 125I probe peptide, purified HLA.

In the case of SVFQNLQVIR (Synthetic peptide) [HER2/NEU A03 motif peptide, position 423, 10 amino acids], the “relative binding ratio (IC50 of standard peptide / IC50 of test peptide)” value in assay [1] is 0.017 ratio.

B1: Her2/neu.998.F1I11 (peptide)
peptide: FPLDSTFYRSI
notes: 11-mer analog of the HER2/neu peptide starting at position 998
Usually IC50 stands for the concentration needed to halve the response being measured. A higher IC50 goes with weaker potency. On to B1, for which the IC50 stood at 229 nM in the assay with HLA-B*0702 [2]; 2670 nM in the assay with HLA-B*3501 [3]; 46 nM with HLA-B*5101 [4]; 620 nM with HLA-B*5301 [5]; 2.4 nM with HLA-B*5401 [6].

B2: Her2/neu.998.F1 (peptide)
peptide: FPLDSTFYRSL
notes: as for B1
Take B2: the IC50 in the assay with HLA-B*0702 [2] amounted to 42 nM; with HLA-B*3501 [3], 400 nM; with HLA-B*5101 [4] it was 324 nM; in the assay with HLA-B*5301 [5], 1190 nM; with HLA-B*5401 [6], 2.7 nM.

B3: Her2/neu.1073.F1I9 (peptide)
peptide: FPLAPSEGI
notes: 9-mer analog of the HER2/neu peptide starting at position 1073
Regarding B3, the IC50 stood at 100 nM with HLA-B*0702 [2]; 554 nM with HLA-B*3501 [3]; 204 nM with HLA-B*5101 [4]; 239 nM with HLA-B*5301 [5]; 5.9 nM with HLA-B*5401 [6].

With CTGTDMKLR (also called Her2/neu.26 9-mer) [HER2/neu peptide, position 26, 9 amino acids (CTGTDMKLR)], the relative binding ratio in assay [7] is 0.0002 ratio (IC50 of standard peptide / IC50 of test peptide).

In the case of TIDVYMIMVK (Synthetic peptide) [HER2/NEU A03 motif peptide, position 948, 10 amino acids], the “relative binding ratio (IC50 of standard peptide / IC50 of test peptide)” value in [1] worked out at 0.013 ratio.

B4: Her2/neu.921.F1I11 (peptide)
peptide: FPYDGIPAREI
notes: 11-mer B7 supermotif analog of the HER2/neu peptide starting at position 921
Take B4: the IC50 with HLA-B*0702 [2] stood at 141 nM; with HLA-B*3501 [3], 2880 nM; in the assay with HLA-B*5101 [4] it was 50 nM; with HLA-B*5301 [5], 465 nM; with HLA-B*5401 [6], 15 nM.

For FPDLSYMPI (analog peptide) [Her2/neu.605.F1], the IC50 with HLA-B*0702 [8] amounted to 22 nM; in the assay with HLA-B*3501 [9] it was 167 nM; with HLA-B*5101 [10], 10 nM; with HLA-B*5301 [11], 72 nM; in the assay with HLA-B*5401 [12], 31 nM.

On to CSKPCARVCY (also called Her2/neu.334 10-mer) [HER2/neu peptide, position 334, 10 amino acids (CSKPCARVCY)], for which, in [7], the relative binding ratio was 0.0003 ratio (IC50 of standard peptide / IC50 of test peptide).

RGTQLFEDNY (Synthetic peptide) [HER2/NEU A03 motif peptide, position 103, 10 amino acids]: the “relative binding ratio (IC50 of standard peptide / IC50 of test peptide)” value in assay [1] came to 0.0003 ratio.

Turning to ALESILRRR (also called Her2/neu.890 9-mer) [HER2/neu peptide, position 890, 9 amino acids (ALESILRRR)], the relative binding ratio in [7] was 0.0013 ratio (IC50 of standard peptide / IC50 of test peptide).

Take CSPMCKGSR (also called Her2/neu.195 9-mer) [HER2/neu peptide, position 195, 9 amino acids (CSPMCKGSR)]: the relative binding ratio in assay [7] is -0.0008 ratio (IC50 of standard peptide / IC50 of test peptide).

For TLIDTNRSR (Synthetic peptide) [HER2/NEU A03 motif peptide, position 182, 9 amino acids], the “relative binding ratio (IC50 of standard peptide / IC50 of test peptide)” value in assay [1] came out at 0.0004 ratio.

Take CLLDHVRENR (also called Her2/neu.805 10-mer) [HER2/neu peptide, position 805, 10 amino acids (CLLDHVRENR)]: in [7], the relative binding ratio is 0.0003 ratio (IC50 of standard peptide / IC50 of test peptide).

B5: Her2/neu.995.F1 (peptide)
peptide: FPASPLDSTF
notes: 10-mer analog of the HER2/neu peptide starting at position 995
B5: the IC50 was determined as 3.7 nM with HLA-B*0702 [2]; 10 nM with HLA-B*3501 [3]; 579 nM in the assay with HLA-B*5101 [4]; 10 nM in the assay with HLA-B*5301 [5]; 200 nM in the assay with HLA-B*5401 [6].

Consider AFSPAFDNLY (also called Her2/neu.1212 10-mer) [HER2/neu peptide, position 1212, 10 amino acids (AFSPAFDNLY)], for which, in assay [7], the relative binding ratio was 0.0003 ratio (IC50 of standard peptide / IC50 of test peptide).

For RILKETELRK (Synthetic peptide) [HER2/NEU A03 motif peptide, position 713, 10 amino acids], the “relative binding ratio (IC50 of standard peptide / IC50 of test peptide)” value in assay [1] stood at 0.057 ratio.

In the case of FPTHDPSPI [Her2/neu.1101.F1I9], the IC50 in the assay with HLA-B*0702 [2] was determined as 108 nM; with HLA-B*3501 [3] it was 600 nM; with HLA-B*5101 [4], 56 nM; in the assay with HLA-B*5301 [5], 274 nM; in the assay with HLA-B*5401 [6] it was 50 nM.

Consider SSEDCQSLTR (Synthetic peptide) [HER2/NEU A03 motif peptide, position 208, 10 amino acids], for which, in assay [1], the “relative binding ratio (IC50 of standard peptide / IC50 of test peptide)” value was -0.0002 ratio.

For RILKETELR (Synthetic peptide) [HER2/NEU A03 motif peptide, position 713, 9 amino acids], in assay [1], the “relative binding ratio (IC50 of standard peptide / IC50 of test peptide)” value came to 0.0007 ratio.

B6: Her2/neu.1155.F1 (peptide)
peptide: FPLPAARPA
notes: 9-mer analog of the HER2/neu peptide starting at position 1155
Turning to B6, the IC50 with HLA-B*0702 [2] was determined as 34 nM; in the assay with HLA-B*3501 [3], 277 nM; with HLA-B*5101 [4] it was 1900 nM; in the assay with HLA-B*5401 [6] it was 1.5 nM.

B7: Her2/neu.1155.F1I9 (peptide)
peptide: FPLPAARPI
notes: as for B6
In the case of B7, the IC50 worked out at 6.5 nM with HLA-B*0702 [2]; 600 nM with HLA-B*3501 [3]; 7.1 nM with HLA-B*5101 [4]; 282 nM with HLA-B*5301 [5]; 3.8 nM with HLA-B*5401 [6].

B8: HER2/NEU A03 motif peptide, position 402, 10 amino acids (peptide)
peptide: TLEEITGYLY
notes: Synthetic peptide; also called Her2/neu.402
On to B8, for which the “relative binding ratio (IC50 of standard peptide / IC50 of test peptide)” value in assay [1] stood at 0.0001 ratio.

The record behind these values is patent US20040018971A1 (published 2004).
